Data as given in patent publication US20230212549A1 (3B PHARMACEUTICALS, published 2023).
Values joined by “and” are separate entries in the source; they are usually repeats but may differ in a detail not shown here. Identical values can stand only once. Numbered stars: 1 amine (or outer) side, 2 acyl side, 3 side chain; on linkers, the order of the positions; unused ones are H or OH. Bridge positions count the residues as written; N and C are the ends. Square brackets hold non-standard residues; d marks the D form. Primed or numbered codes have the meaning given here. * marks the point of attachment. tMeBn(DOTA-PP) = 1,3,5-trimethylbenzylidene, two thioethers to Cys, third CH2 bound to one N of piperazine whose other N bears DOTA, O=C(O)CN1CCN(CC(=O)O)CCN(CC(=O)N2CCN(Cc3cc(C[*:1])cc(C[*:2])c3)CC2)CCN(CC(=O)O)CC1; tMeBn(DOTA-PP)″ = trimethylbenzylidene (tMeBn) bridge between the two Cys thiols, whose remaining connection point carries a DOTA chelator via a PP linker; Ttds″ = 1,13-diamino-4,7,10-trioxatridecan-succinamic acid spacer, O=C(CCC(=O)[*:2])NCCCOCCOCCOCCCN[*:1]; Ttds(6) = 1,13-Diamino-4,7,10-trioxatridecan-succinamic acid, O=C(CCC(=O)[*:2])NCCCOCCOCCOCCCN[*:1]; Ttds = 1,13-diamino-4,7,10-trioxatridecan-succinamic acid, O=C(CCC(=O)[*:2])NCCCOCCOCCOCCCN[*:1]; 3MeBn = 3-Methylbenzylidene (m-xylylene thioether bridge from α,α′-dibromo-m-xylene); N4Ac = 6-Carboxy-1,4,8,11-tetraazaundecane, an N4-chelator, NCCNCC(CNCCN)C(=O)*; APAc = 2-(4-(Amino)piperidin-1-yl)acetic acid, O=C(CN1CCC(N[*:1])CC1)[*:2]; 3MeBn(3) = 3-methylbenzylidene (m-xylylene), from α,α′-dibromo-m-xylene; DOTA = O=C(O)CN1CCN(CC(=O)O)CCN(CC(=O)*)CCN(CC(=O)O)CC1; γGlu = O=C(O)[C@H](CCC(=O)[*:2])N[*:1]; mXylylene = c1cc(C[*:1])cc(C[*:2])c1; Pentanesulfonyl = CCCCCS(=O)(=O)*; 3Amb = NCc1cccc(C(=O)O)c1; 4Amb = NCc1ccc(C(=O)O)cc1; Nle = CCCC[C@H](N)C(=O)O; Nphe = O=C(O)CNCc1ccccc1; Hexanoyl = CCCCCC(=O)*; Nleu = CC(C)CNCC(=O)O; Nlys = NCCCCNCC(=O)O; Sar = CNCC(=O)O

How the values were obtained:
[1] = molecular target: T1, Recombinant human FAP (R&D systems, #3715-SE) (human, UniProt Q12884 26-760); test: SPR (Biacore T200), FAP captured on anti-FAP antibody, single cycle kinetics
T1 construct: bought; in SPR captured on immobilized anti-FAP antibody MAB3715; also called rhFAP; human recombinant FAP

[2] = molecular target: Recombinant human FAP (R&D systems, #3715-SE) (human, UniProt Q12884 26-760); test: cell-based or functional assay
[3] = molecular target: T2, fibroblast activation protein (FAP) on FAP-expressing human WI-38 fibroblasts (human, UniProt Q12884 1-760); test: competitive FACS, WI-38 cells, vs Cy5 tracer m3; B = pIC50 7.1-8.0
T2 construct: also called human FAP

[4] = molecular target: T1, Recombinant human FAP (R&D systems, …); test: cell-based or functional assay; remark: listed apart in the source

Binder	pKD Category [1]	pIC50 Category (Activity) [4]	also measured
Pentanesulfonyl-CPPTQFCD-NH2 (linker 1-7 via mXylylene; SMILES CCCCCS(=O)(=O)N[C@H]1CSCc2cccc(c2)CSC[C@@H](C(=O)N[C@@H](CC(=O)O)C(N)=O)NC(=O)[C@H](Cc2ccccc2)NC(=O)[C@H](CCC(N)=O)NC(=O)[C@H]([C@@H](C)O)NC(=O)[C@@H]2CCCN2C(=O)[C@@H]2CCCN2C1=O, also called 3BP-3514) [Pentyl-SO2-[Cys(3MeBn)-Pro-Pro-Thr-Gln-Phe-Cys]-Asp-NH2]	> 8 pKD		
{DOTA}-[Ttds][Nle]CPPTEFC-NH2 (linker 3-9 via mXylylene; SMILES CCCC[C@H](NC(=O)CCC(=O)NCCCOCCOCCOCCCNC(=O)CN1CCN(CC(=O)O)CCN(CC(=O)O)CCN(CC(=O)O)CC1)C(=O)N[C@H]1CSCc2cccc(c2)CSC[C@@H](C(N)=O)NC(=O)[C@H](Cc2ccccc2)NC(=O)[C@H](CCC(=O)O)NC(=O)[C@H]([C@@H](C)O)NC(=O)[C@@H]2CCCN2C(=O)[C@@H]2CCCN2C1=O, also called 3BP-3319) [DOTA-Ttds-Nle-[Cys(3MeBn)-Pro-Pro-Thr-Glu-Phe-Cys]-NH2]			pIC50 Category (Activity) [2]: 7.1 pIC50 and 8 pIC50; pIC50 Category (FACS) [3]: 7.1 pIC50 and 8 pIC50
{DOTA}-[Ttds][Nle]CPPTEFCD-NH2 (linker 3-9 via mXylylene; SMILES CCCC[C@H](NC(=O)CCC(=O)NCCCOCCOCCOCCCNC(=O)CN1CCN(CC(=O)O)CCN(CC(=O)O)CCN(CC(=O)O)CC1)C(=O)N[C@H]1CSCc2cccc(c2)CSC[C@@H](C(=O)N[C@@H](CC(=O)O)C(N)=O)NC(=O)[C@H](Cc2ccccc2)NC(=O)[C@H](CCC(=O)O)NC(=O)[C@H]([C@@H](C)O)NC(=O)[C@@H]2CCCN2C(=O)[C@@H]2CCCN2C1=O, also called 3BP-3320) [DOTA-Ttds-Nle-[Cys(3MeBn)-Pro-Pro-Thr-Glu-Phe-Cys]-Asp-NH2]			pIC50 Category (Activity) [2]: > 8 pIC50; pIC50 Category (FACS) [3]: 7.1 pIC50 and 8 pIC50
Hexanoyl-C[Nphe]PTQFC-NH2 (linker 1-7 via mXylylene; SMILES CCCCCC(=O)N[C@H]1CSCc2cccc(c2)CSC[C@@H](C(N)=O)NC(=O)[C@H](Cc2ccccc2)NC(=O)[C@H](CCC(N)=O)NC(=O)[C@H]([C@@H](C)O)NC(=O)[C@@H]2CCCN2C(=O)CN(Cc2ccccc2)C1=O) [Hex-[Cys(3MeBn)-Nphe-Pro-Thr-Gln-Phe-Cys]-NH2]		≤ 6 pIC50	
CPPTQFX (not fully specified; N-term Hex; X7 = AET; Cys1/AET7 thioether-cyclised via tMeBn(InDOTA-AET), also called 3BP-3713) [Hex-[Cys(tMeBn(InDOTA-AET))-Pro-Pro-Thr-Gln-Phe-AET]]	> 8 pKD		
N4Ac-[APAc][Nle]CPPTEFC-OH (linker 3-9 via 3MeBn(3)) [N4Ac-APAc-Nle-[Cys-(3MeBn)-Pro-Pro-Thr-Glu-Phe-Cys]-OH]		≤ 6 pIC50	
Pentanesulfonyl-CPPTQFCD-NH2 (linker 1-7 via tMeBn(DOTA-PP)″, also called 3BP-3692) [Pentyl-SO2-[Cys(tMeBn(DOTA-PP))-Pro-Pro-Thr-Gln-Phe-Cys]-Asp-NH2]	> 8 pKD		
Hexanoyl-C[Sar]PTQFC-OH (linker 1-7 via tMeBn(DOTA-AET), also called 3BP-3678) [Hex-[Cys(tMeBn(DOTA-AET))-Nmg-Pro-Thr-Gln-Phe-Cys]-OH]	> 8 pKD		
Hexanoyl-CFQTPPCD-NH2 (linker 1-7 via tMeBn(DOTA-PP); SMILES CCCCCC(=O)N[C@H]1CSCc2cc(cc(CN3CCN(C(=O)CN4CCN(CC(=O)O)CCN(CC(=O)O)CCN(CC(=O)O)CC4)CC3)c2)CSC[C@@H](C(=O)N[C@@H](CC(=O)O)C(N)=O)NC(=O)[C@@H]2CCCN2C(=O)[C@@H]2CCCN2C(=O)[C@H]([C@@H](C)O)NC(=O)[C@H](CCC(N)=O)NC(=O)[C@H](Cc2ccccc2)NC1=O) [Hex-[Cys(tMeBn(DOTA-PP))-Phe-Gln-Thr-Pro-Pro-Cys]-Asp-NH2]		≤ 6 pIC50	
CPPTQFCD (N-term Hex; Cys1/Cys7 thioether-cyclised via tMeBn(DOTA-AET); D-Asp at 8; C-term amide, also called 3BP-3681) [Hex-[Cys(tMeBn(DOTA-AET))-Pro-Pro-Thr-Gln-Phe-Cys]-asp-NH2]	> 8 pKD		
Hexanoyl-C[Nlys]PTQFC-NH2 (linker 1-7 via mXylylene; SMILES CCCCCC(=O)N[C@H]1CSCc2cccc(c2)CSC[C@@H](C(N)=O)NC(=O)[C@H](Cc2ccccc2)NC(=O)[C@H](CCC(N)=O)NC(=O)[C@H]([C@@H](C)O)NC(=O)[C@@H]2CCCN2C(=O)CN(CCCCN)C1=O) [Hex-[Cys(3MeBn)-Nlys-Pro-Thr-Gln-Phe-Cys]-NH2]		≤ 6 pIC50	
Hexanoyl-CPPTEFCD[3Amb]R-NH2 (linker 1-7 via mXylylene; SMILES CCCCCC(=O)N[C@H]1CSCc2cccc(c2)CSC[C@@H](C(=O)N[C@@H](CC(=O)O)C(=O)NCc2cccc(C(=O)N[C@@H](CCCNC(=N)N)C(N)=O)c2)NC(=O)[C@H](Cc2ccccc2)NC(=O)[C@H](CCC(=O)O)NC(=O)[C@H]([C@@H](C)O)NC(=O)[C@@H]2CCCN2C(=O)[C@@H]2CCCN2C1=O, also called 3BP-3324) [Hex-[Cys(3MeBn)-Pro-Pro-Thr-Glu-Phe-Cys]-Asp-Mamb-Arg-NH2]	> 8 pKD		
Hexanoyl-CPPTQFCD-NH2 (linker 1-7 via tMeBn(LuDOTA-PP); also: Lu complex (LuDOTA), also called 3BP-3591) [Hex-[Cys(tMeBn(LuDOTA-PP))-Pro-Pro-Thr-Gln-Phe-Cys]-Asp-NH2]	> 8 pKD		
Hexanoyl-CPTPFQCD-NH2 (linker 1-7 via tMeBn(DOTA-PP); SMILES CCCCCC(=O)N[C@H]1CSCc2cc(cc(CN3CCN(C(=O)CN4CCN(CC(=O)O)CCN(CC(=O)O)CCN(CC(=O)O)CC4)CC3)c2)CSC[C@@H](C(=O)N[C@@H](CC(=O)O)C(N)=O)NC(=O)[C@H](CCC(N)=O)NC(=O)[C@H](Cc2ccccc2)NC(=O)[C@@H]2CCCN2C(=O)[C@H]([C@@H](C)O)NC(=O)[C@@H]2CCCN2C1=O) [Hex-[Cys(tMeBn(DOTA-PP))-Pro-Thr-Pro-Phe-Gln-Cys]-Asp-NH2]		≤ 6 pIC50	
Hexanoyl-CPPTQFCD-NH2 (linker 1-7 via tMeBn(InDOTA-PP); also: In complex (InDOTA), also called 3BP-3590) [Hex-[Cys(tMeBn(InDOTA-PP))-Pro-Pro-Thr-Gln-Phe-Cys]-Asp-NH2]	> 8 pKD		
Hexanoyl-CPPTEFCD[Ttds″]K(DOTA)-NH2 (linker 1-7 via mXylylene; SMILES CCCCCC(=O)N[C@H]1CSCc2cccc(c2)CSC[C@@H](C(=O)N[C@@H](CC(=O)O)C(=O)NCCCOCCOCCOCCCNC(=O)CCC(=O)N[C@@H](CCCCNC(=O)CN2CCN(CC(=O)O)CCN(CC(=O)O)CCN(CC(=O)O)CC2)C(N)=O)NC(=O)[C@H](Cc2ccccc2)NC(=O)[C@H](CCC(=O)O)NC(=O)[C@H]([C@@H](C)O)NC(=O)[C@@H]2CCCN2C(=O)[C@@H]2CCCN2C1=O, also called 3BP-3396) [Hex-[Cys(3MeBn)-Pro-Pro-Thr-Glu-Phe-Cys]-Asp-Ttds-Lys(DOTA)-NH2]	> 8 pKD		
N4Ac-[Ttds(6)]E[Nle]CPPTEFC-OH (linker 4-10 via 3MeBn; not fully specified (residue 2); printed as N4Ac-Ttds-Glu(AGLU′)-Nle-[Cys-(3MeBn)-Pro-Pro-Thr-Glu-Phe-Cys]-OH) [N4Ac-Ttds-Glu(AGLU′)-Nle-[Cys-(3MeBn)-Pro-Pro-Thr-Glu-Phe-Cys]-OH]		≤ 6 pIC50	
CPPTQFX (not fully specified; N-term Hex; X7 = AET; Cys1/AET7 thioether-cyclised via tMeBn(DOTA-AET), also called 3BP-3654) [Hex-[Cys(tMeBn(DOTA-AET))-Pro-Pro-Thr-Gln-Phe-AET]]	> 8 pKD		
N4Ac-[γGlu][Nle]CPPTEFC-OH (linker 3-9 via mXylylene; SMILES CCCC[C@H](NC(=O)CC[C@H](NC(=O)C(CNCCN)CNCCN)C(=O)O)C(=O)N[C@H]1CSCc2cccc(c2)CSC[C@@H](C(=O)O)NC(=O)[C@H](Cc2ccccc2)NC(=O)[C@H](CCC(=O)O)NC(=O)[C@H]([C@@H](C)O)NC(=O)[C@@H]2CCCN2C(=O)[C@@H]2CCCN2C1=O) [N4Ac-gGlu-Nle-[Cys-(3MeBn)-Pro-Pro-Thr-Glu-Phe-Cys]-OH]		≤ 6 pIC50	
Hexanoyl-C[Nleu]PTQFC-NH2 (linker 1-7 via mXylylene; SMILES CCCCCC(=O)N[C@H]1CSCc2cccc(c2)CSC[C@@H](C(N)=O)NC(=O)[C@H](Cc2ccccc2)NC(=O)[C@H](CCC(N)=O)NC(=O)[C@H]([C@@H](C)O)NC(=O)[C@@H]2CCCN2C(=O)CN(CC(C)C)C1=O) [Hex-[Cys(3MeBn)-Nleu-Pro-Thr-Gln-Phe-Cys]-NH2]		≤ 6 pIC50	
Hexanoyl-CPPTQFCD-NH2 (linker 1-7 via tMeBn(GaDOTA-PP); also: Ga complex (GaDOTA), also called 3BP-3592) [Hex-[Cys(tMeBn(GaDOTA-PP))-Pro-Pro-Thr-Gln-Phe-Cys]-Asp-NH2]	> 8 pKD		
Hexanoyl-CPPTEFCD[4Amb]R-NH2 (linker 1-7 via mXylylene; SMILES CCCCCC(=O)N[C@H]1CSCc2cccc(c2)CSC[C@@H](C(=O)N[C@@H](CC(=O)O)C(=O)NCc2ccc(C(=O)N[C@@H](CCCNC(=N)N)C(N)=O)cc2)NC(=O)[C@H](Cc2ccccc2)NC(=O)[C@H](CCC(=O)O)NC(=O)[C@H]([C@@H](C)O)NC(=O)[C@@H]2CCCN2C(=O)[C@@H]2CCCN2C1=O, also called 3BP-3301) [Hex-[Cys(3MeBn)-Pro-Pro-Thr-Glu-Phe-Cys]-Asp-Pamb-Arg-NH2]	> 8 pKD		
Hexanoyl-CTQPFPCD-NH2 (linker 1-7 via tMeBn(DOTA-PP); SMILES CCCCCC(=O)N[C@H]1CSCc2cc(cc(CN3CCN(C(=O)CN4CCN(CC(=O)O)CCN(CC(=O)O)CCN(CC(=O)O)CC4)CC3)c2)CSC[C@@H](C(=O)N[C@@H](CC(=O)O)C(N)=O)NC(=O)[C@@H]2CCCN2C(=O)[C@H](Cc2ccccc2)NC(=O)[C@@H]2CCCN2C(=O)[C@H](CCC(N)=O)NC(=O)[C@H]([C@@H](C)O)NC1=O) [Hex-[Cys(tMeBn(DOTA-PP))-Thr-Gln-Pro-Phe-Pro-Cys]-Asp-NH2]		≤ 6 pIC50	
Hexanoyl-CPPTQFCD-OH (linker 1-7 via tMeBn(DOTA-AET), also called 3BP-3665) [Hex-[Cys(tMeBn(DOTA-AET))-Pro-Pro-Thr-Gln-Phe-Cys]-Asp-OH]	> 8 pKD		
